Reference: patent publication US20230062308A1, “TREATMENT OF CK8 POSITIVE CANCERS IN RELATION WITH K-RAS GENE STATUS” (INTERNATIONAL - DRUG - DEVELOPMENT - BIOTECH, priority 2017, published 2023)

Target: T1, eCK8 (Homo sapiens, UniProt P05787)
T1 construct: methods to investigate on CK8 cellular expression at the cell surface analysed by flow cytometry; endogenous in cells
T1 sequence (P05787 1-483): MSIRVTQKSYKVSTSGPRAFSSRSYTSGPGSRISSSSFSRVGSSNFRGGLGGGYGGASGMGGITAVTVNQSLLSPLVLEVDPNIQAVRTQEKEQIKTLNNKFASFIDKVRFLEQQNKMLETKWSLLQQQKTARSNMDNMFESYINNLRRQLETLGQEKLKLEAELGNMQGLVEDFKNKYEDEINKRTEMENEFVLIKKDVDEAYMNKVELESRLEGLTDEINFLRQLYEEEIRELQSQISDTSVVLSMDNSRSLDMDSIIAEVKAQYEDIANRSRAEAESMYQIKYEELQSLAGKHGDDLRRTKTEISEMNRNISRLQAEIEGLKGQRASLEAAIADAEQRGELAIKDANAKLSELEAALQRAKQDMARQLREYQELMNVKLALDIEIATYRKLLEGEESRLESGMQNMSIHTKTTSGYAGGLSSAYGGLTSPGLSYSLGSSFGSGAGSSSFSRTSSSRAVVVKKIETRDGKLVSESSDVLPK
Test: Antibody binding assay by flow cytometry (eCK8 expression on solid tumour cell lines)
Conditions: MAb 5 μg/mL, mean ± SD
Protocol: Cell lines. The established human neuroglioma cells H4, HS683, U373 or A172 (available from ATCC); the established human colorectal cells HT29; the established human pancreatic cells PANC1 or MIA-PA-CA2; the established human kidney adenocarcinoma cells A704 or ACHN and the established human lung adenocarcinoma cells A549 were grown in Dulbecco's Modified Eagle's Medium (Sigma, St Quentin Fallavier, France) supplemented with 10% heat-inactivated foetal bovine serum (FBS) (Sigma, St Quentin Fallavier, France), […] L-glutamine (Sigma, St Quentin Fallavier, France) and 100 U/mL, 100 μg/mL penicillin-streptomycin (Sigma, St Quentin Fallavier, France). The established human glioblastoma astrocytoma cells U87MG or T98G, the human head and neck cancer cells FaDu or Detroit562, the human urinary cancer cells UM-UC-3, J82, HT1197 or HT1376 and the human prostate cancer cells DU145 were grown in Eagle's Minimum Essential Medium (Sigma, St Quentin Fallavier, France) supplemented with 10% heat-inactivated fetal bovine serum (FBS) (Sigma, St Quentin Fallavier, France), […] L-glutamine (Sigma, St Quentin Fallavier, France) and 100 U/mL, 100 μg/mL penicillin-streptomycin (Sigma, St Quentin Fallavier, France). The established human breast adenocarcinoma cells MDAMB231, MCF-7 or HBL100 and the human colorectal cancer cells HCT116 were grown in Dulbecco's Modified Eagle's Medium Glutamax Low Glucose (Life Technologies, St Aubin, France) supplemented with 10% heat-inactivated fetal bovine serum (FBS) (Sigma, St Quentin Fallavier, France), […] L-glutamine (Sigma, St Quentin Fallavier, France) and 100 U/mL, 100 μg/mL penicillin-streptomycin (Sigma, St Quentin Fallavier, France).The established human colorectal cells HCT15 or SW480 and the human head and neck cancer cells TR146 were grown in Dulbecco's Modified Eagle's Medium Glutamax High Glucose (Life Technologies, St Aubin, France) supplemented with 10% heat-inactivated fetal bovine serum (FBS) (Sigma, St Quentin Fallavier, France) and 100 U/mL, 100 μg/mL penicillin-streptomycin (Sigma, St Quentin Fallavier, France). The established human head and neck cancer cells BICR16, BICR18 or BICR56 were grown in Dulbecco's Modified Eagle's Medium (Sigma, St Quentin Fallavier, France) supplemented with 10% heat-inactivated foetal bovine serum (FBS) (Sigma, St Quentin Fallavier, France), […] L-glutamine (Sigma, St Quentin Fallavier, France), 100 U/mL, 100 μg/mL penicillin-streptomycin (Sigma, St Quentin Fallavier, France) and 0.4 μg/mL hydrocortisone (Sigma, St Quentin Fallavier, France). The established human head and neck cancer cells SCC9, SCC4 or SCC15 were grown in Dulbecco's Modified Eagle's Medium/F12 (Life Technologies, St Aubin, France) supplemented with 10% heat-inactivated foetal bovine serum (FBS) (Sigma, St Quentin Fallavier, France), […] L-glutamine (Sigma, St Quentin Fallavier, France), 100 U/mL, 100 μg/mL penicillin-streptomycin (Sigma, St Quentin Fallavier, France) and 0,4 μg/mL hydrocortisone (Sigma, St Quentin Fallavier, France). The established human urinary bladder carcinoma cells 5637, the human prostate cancer cells LNCap clone FGC, the established human lung adenocarcinoma cells NCIH1703 or NCIH292, the human pancreatic cancer cells PSN1 or BxPC3 and the human kidney adenocarcinoma cells Caki1 were grown in RPMI-1640 Medium (Sigma, St Quentin Fallavier, France) supplemented with 10% heat-inactivated fetal bovine serum (FBS) (Sigma, St Quentin Fallavier, France), […] L-glutamine (Sigma, St Quentin Fallavier, France) and 100 U/mL, 100 μg/mL penicillin-streptomycin (Sigma, St Quentin Fallavier, France). […]

[1] = Detroit562 cell line (Head & Neck)
[2] = LNCaP clone FGC cell line (Prostate)
[3] = MIA-Pa-Ca-2 cell line (Pancreatic)

B1: HzR022 (D-A10): humanized anti-CK8 monoclonal antibody D-A10; VL SEQ ID NO: 14, VH SEQ ID NO: 15 (antibody, V domains shown)
VH: EVQLVESGGGLVQPGGSLRLSCAASGFTFSSYWMSWVRQAPGKGLVWVSDINSDGSSTKYADSVKGRFTISRDNAKNTLYLQMNSLRAEDTAVYYCIAHYSGGGFAYWGQGTLVTVSS
VL: DIVMTQAPLSLPVTPGEPASISCRSSKSLLYSNGYNYLYWFLQKPGQSPQLLIYYMSNLASGVPDRFSGSGSGTDFTLKISRVEAEDVGVYYCMQSLEYPFTFGQGTKLEIK
modifications: VHHzD-A10; VLHzD-A10
% labelled cells (8-MG-BA cell line (GBM)): 72 ± 11% | MFI (8-MG-BA cell line (GBM)): 261 ± 38 | % labelled cells (42-MG-BA cell line (GBM)): 54 ± 7% | MFI (42-MG-BA cell line (GBM)): 247 ± 44 | % labelled cells (5637 cell line (Urinary)): 59 ± 20% | MFI (5637 cell line (Urinary)): 284 ± 61 | % labelled cells (A172 cell line (GBM)): 35 ± 23% | MFI (A172 cell line (GBM)): 186 ± 14 | % labelled cells (A549 cell line (Lung)): 36 ± 12% | MFI (A549 cell line (Lung)): 193 ± 38 | % labelled cells (A704 cell line (Renal)): 37 ± 26% | MFI (A704 cell line (Renal)): 184 ± 30 | % labelled cells (ACHN cell line (Renal)): 46 ± 20% | MFI (ACHN cell line (Renal)): 195 ± 20 | % labelled cells (AsPC-1 cell line (Pancreatic)): 26 ± 14% | MFI (AsPC-1 cell line (Pancreatic)): 181 ± 17 | % labelled cells (BICR16 cell line (Head & Neck)): 52 ± 2% | MFI (BICR16 cell line (Head & Neck)): 206 ± 10 | % labelled cells (BICR18 cell line (Head & Neck)): 79 ± 9% | MFI (BICR18 cell line (Head & Neck)): 257 ± 23 | % labelled cells (BICR56 cell line (Head & Neck)): 39 ± 34% | MFI (BICR56 cell line (Head & Neck)): 123 ± 4 | % labelled cells (BxPC-3 cell line (Pancreatic)): 41 ± 17% | MFI (BxPC-3 cell line (Pancreatic)): 220 ± 17 | % labelled cells (CFPAC-1 cell line (Pancreatic)): 62 ± 4% | MFI (CFPAC-1 cell line (Pancreatic)): 279 ± 25 | % labelled cells (Caki1 cell line (Renal)): 49 ± 12% | MFI (Caki1 cell line (Renal)): 267 ± 36 | % labelled cells (DU145 cell line (Prostate)): 19 ± 11% | MFI (DU145 cell line (Prostate)): 185 ± 42 | % labelled cells [1]: 36 ± 0% | MFI [1]: 203 ± 15 | % labelled cells (FaDu cell line (Head & Neck)): 56 ± 8% | MFI (FaDu cell line (Head & Neck)): 258 ± 20 | % labelled cells (H4 cell line (GBM)): 58 ± 33% | MFI (H4 cell line (GBM)): 199 ± 40 | % labelled cells (HBL100 cell line (Breast)): 67 ± 8% | MFI (HBL100 cell line (Breast)): 219 ± 6 | % labelled cells (HCT116 cell line (Colon)): 64 ± 0% | MFI (HCT116 cell line (Colon)): 283 ± 16 | % labelled cells (HS683 cell line (GBM)): 54 ± 9% | MFI (HS683 cell line (GBM)): 225 ± 24 | % labelled cells (HT29 cell line (Colon)): 49 ± 9% | MFI (HT29 cell line (Colon)): 203 ± 22 | % labelled cells (HT1197 cell line (Urinary)): 23 ± 7% | MFI (HT1197 cell line (Urinary)): 240 ± 4 | % labelled cells (HT1376 cell line (Urinary)): 53 ± 3% | MFI (HT1376 cell line (Urinary)): 497 ± 11 | % labelled cells (HuP-T3 cell line (Pancreatic)): 62 ± 17% | MFI (HuP-T3 cell line (Pancreatic)): 260 ± 20 | % labelled cells (J82 cell line (Urinary)): 68 ± 9% | MFI (J82 cell line (Urinary)): 319 ± 4 | % labelled cells [2]: 76 ± 9% | MFI [2]: 412 ± 21 | % labelled cells (MCF-7 cell line (Breast)): 56 ± 33% | MFI (MCF-7 cell line (Breast)): 250 ± 61 | % labelled cells (MDAMB231 cell line (Breast)): 49 ± 14% | MFI (MDAMB231 cell line (Breast)): 179 ± 15 | % labelled cells [3]: 58 ± 14% | MFI [3]: 264 ± 14 | % labelled cells (NCIH292 cell line (Lung)): 53 ± 20% | MFI (NCIH292 cell line (Lung)): 272 ± 38 | % labelled cells (NCIH1703 cell line (Lung)): 33 ± 10% | MFI (NCIH1703 cell line (Lung)): 188 ± 12 | % labelled cells (PANC-1 cell line (Pancreatic)): 37 ± 7% | MFI (PANC-1 cell line (Pancreatic)): 198 ± 23 | % labelled cells (PSN-1 cell line (Pancreatic)): 15 ± 6% | MFI (PSN-1 cell line (Pancreatic)): 193 ± 16 | % labelled cells (SCC4 cell line (Head & Neck)): 59 ± 16% | MFI (SCC4 cell line (Head & Neck)): 222 ± 88 | % labelled cells (SCC9 cell line (Head & Neck)): 30 ± 23% | MFI (SCC9 cell line (Head & Neck)): 193 ± 23 | % labelled cells (SCC 15 cell line (Head & Neck)): 41 ± 21% | MFI (SCC 15 cell line (Head & Neck)): 167 ± 13 | % labelled cells (SW480 cell line (Colon)): 38 ± 3% | MFI (SW480 cell line (Colon)): 179 ± 1 | % labelled cells (T98G cell line (GBM)): 48 ± 25% | MFI (T98G cell line (GBM)): 211 ± 20 | % labelled cells (TCCSUP cell line (Urinary)): 62 ± 10% | MFI (TCCSUP cell line (Urinary)): 255 ± 48 | % labelled cells (TR146 cell line (Head & Neck)): 55 ± 18% | MFI (TR146 cell line (Head & Neck)): 140 ± 4 | % labelled cells (U87-MG cell line (GBM)): 38 ± 23% | MFI (U87-MG cell line (GBM)): 178 ± 35 | % labelled cells (U373 cell line (GBM)): 53 ± 1% | MFI (U373 cell line (GBM)): 161 ± 7 | % labelled cells (UM-UC-3 cell line (Urinary)): 26 ± 23% | MFI (UM-UC-3 cell line (Urinary)): 156 ± 14
